Measured values reported in patent US20100286027A1, “ANTI-BACTERIAL COMPOSITIONS” (priority 2008, published 2010).

Assays:
[1] = system: Fusobacterium nucleatum NB86006; experiment: MIC against anaerobic bacteria; type: cell-based
[2] = system: Prevotella intermedia NB88001; experiment: MIC against anaerobic bacteria; type: cell-based
[3] = system: Clostridium difficile NB95002; experiment: MIC against anaerobic bacteria; type: cell-based
[4] = system: Peptostreptococcus anaerobius NB97001; experiment: MIC against anaerobic bacteria; type: cell-based
[5] = system: E. coli NB27004; experiment: MIC against aerobic gram negative bacteria; type: cell-based, Escherichia coli
[6] = system: E. coli NB27005* (TolC efflux pump mutant); experiment: MIC against aerobic gram negative bacteria, efflux pump mutant; type: cell-based, Escherichia coli; settings: aerobic gram negative; E. coli NB27005*, TolC efflux pump mutant strain
[7] = system: P. aeruginosa NB52019; experiment: MIC against aerobic gram negative bacteria; type: cell-based, Pseudomonas aeruginosa
[8] = system: P. aeruginosa NB52020* (mexAB/oprM efflux pump mutant); experiment: MIC against aerobic gram negative bacteria, efflux pump mutant; type: cell-based, Pseudomonas aeruginosa; settings: aerobic gram negative; P. aeruginosa NB52020*, mexAB/oprM efflux pump mutant strain
[9] = system: H. influenzae NB65027-CDS0021* (TolC efflux pump mutant); experiment: as above; type: cell-based, Haemophilus influenzae; settings: aerobic gram negative; H. influenzae NB65027-CDS0021*, TolC efflux pump mutant strain
[10] = system: gram-positive and gram-negative anaerobic bacteria; experiment: MIC against panel of anaerobic bacteria, comparison with ciprofloxacin; type: cell-based; settings: against all the anaerobic bacteria tested; molecular weights ~30000 da and 386 da
[11] = system: E. coli; experiment: Aggregation of E. coli in vitro, light microscopy; design: species or system Escherichia coli; settings: 10^6 E. coli in 1 ml PBS, 20 microgram/ml protein, 12 hours
Description: FIG. 4: Aggregation of E. coli in vitro following incubation with recombinant Nod2 LRR domains. E. coli (10^6) in 1 ml of PBS were incubated with either 20 microgram/ml BSA or purified recombinant Nod2 LRR domains for 12 hours. Aliquots of the cultures were inoculated on a coverslipped slide and analyzed by light microscopy using a 63× objective.
The Nod2 positive staining of the bacteria in the cytoplasm of cultured cells could either be a direct interaction or result from the colocalization of Nod2 and bacteria in an unidentified vesicular structure. In order to test the hypothesis that the interaction between Nod2 and E. coli was direct, purified recombinant LRR domains from Nod2 were incubated with E. coli (FIG. 4). […] This supports the hypothesis that Nod2 LRR domains can directly interact with E. coli.

[12] = system: B. subtilis; experiment: Bacterial growth inhibition (FIG. 14); type: cell-based, Bacillus subtilis; settings: FIG. 14 Panel A; increasing concentrations, relative to controls (100%)
Description: (§1) Values shown are relative to controls incubated in the absence of LRR domains (100%).

[13] = system: S. aureus; experiment: Bacterial growth inhibition (FIG. 14, FIG. 16); type: cell-based, Staphylococcus aureus
Description: as §1
This inhibition was unaffected by the co-administration of MDP, LPS, or PGN.

[14] = system: L. monocytogenes; experiment: Bacterial growth inhibition (FIG. 15); type: cell-based, Listeria monocytogenes; settings: FIG. 15 Panel C
[15] = system: H. influenzae NB65027; settings: aerobic gram negative
[16] = system: lawn of the indicated bacteria; experiment: Agar diffusion assay; settings: FIG. 11 Panel D; 0.5 mg/ml in sterile PBS per well
[17] = system: Listeria monocytogenes (7644); experiment: BacTiter-Glo bacterial ATP content viability assay; settings: Listeria monocytogenes (7644), gram +; +/− SD, n = 3; >100 = activity detected but <50% inhibition
[18] = system: Enterococcus faecalis (29212); experiment: BacTiter-Glo bacterial ATP content viability assay; settings: Enterococcus faecalis (29212), gram +; +/− SD, n = 3; >100 = activity detected but <50% inhibition
[19] = system: Staphylococcus aureus (29213); experiment: BacTiter-Glo bacterial ATP content viability assay
[20] = system: Streptococcus pneumoniae (49619); experiment: BacTiter-Glo bacterial ATP content viability assay; settings: gram +, +/− SD, n = 3, >100 = activity detected but <50% inhibition
[21] = system: Escherichia coli (8739); experiment: BacTiter-Glo bacterial ATP content viability assay; settings: gram −, +/− SD, n = 3, >100 = activity detected but <50% inhibition
[22] = system: Escherichia coli (25922); experiment: BacTiter-Glo bacterial ATP content viability assay; settings: gram −, +/− SD, n = 3, >100 = activity detected but <50% inhibition
[23] = system: Klebsiella pneumoniae (700603); experiment: BacTiter-Glo bacterial ATP content viability assay; settings: gram −, +/− SD, n = 3, >100 = activity detected but <50% inhibition
[24] = system: Pseudomonas aeruginosa (27853); experiment: BacTiter-Glo bacterial ATP content viability assay; settings: gram −, +/− SD, n = 3, >100 = activity detected but <50% inhibition
[25] = system: Stenotrophomonas maltophilia (17666); experiment: BacTiter-Glo bacterial ATP content viability assay; settings: gram −, +/− SD, n = 3, >100 = activity detected but <50% inhibition
[26] = system: B. subtilis; experiment: Membrane polarity, DiBAC4 uptake by flow cytometry; settings: FIG. 11 Panels B and C; 5×10^5 bacteria in 100 μL, 2 hours at 37° C.
[27] = system: Streptococcus pneumoniae (ATCC 49619); experiment: Gentamycin protection assay in stable 293 cell lines; settings: 293 cells stably expressing the protein, infected with S. pneumoniae at MOI 10:1, versus control cells
[28] = system: porins (OmpC and OmpF); experiment: LRR domain affinity column and mass spectrometry protein identification; settings: guanidinium HCl extract of detergent-insoluble E. coli fraction; SDS-PAGE, mass spectrometry

B1: Nod2: purified recombinant LRR domain of Nod2 expressed in E. coli; human NOD2-LRR is SEQ ID NO: 3; ~30000 da (protein, listed as Homo sapiens)
chain: PAAPGEAKSVHAMPGFIWLIRSLYEMQEERLARKAARGLNVGHLKLTFCSVGPTECAALAFVLQHLRRPVALQLDYNSVGDIGVEQLLPCLGVCKALYLRDNNISDRGICKLIECALHCEQLQKLALFNNKLTDGCAHSMAKLLACRQNFLALRLGNNYITAAGAQVLAEGLRGNTSLQFLGFWGNRVGDEGAQALAEALGDHQSLRWLSLVGNNIGSVGAQALALMLAKNVMLEELCLEENHLQDEGVCSLAEGLKKNSSLKILKLSNNCITYLGAEALLQALERNDTILEVWLRGNTFSLEEVDKLGCRDTRLLL
notes: purified recombinant LRR domain of Nod2 expressed in E. coli; ~30000 da
[1]
  minimal inhibitory concentration (MIC): 8 microgram/ml
[2]
  minimal inhibitory concentration (MIC): 4 microgram/ml
[3]
  minimal inhibitory concentration (MIC): 4 microgram/ml
[4]
  minimal inhibitory concentration (MIC): 2 microgram/ml
[5]
  minimal inhibitory concentration (MIC): >128 microgram/ml
[6]
  minimal inhibitory concentration (MIC): 32 microgram/ml
[7]
  minimal inhibitory concentration (MIC): >128 microgram/ml
[8]
  minimal inhibitory concentration (MIC): >128 microgram/ml
[9]
  minimal inhibitory concentration (MIC): 4 microgram/ml
[10]
  potency relative to ciprofloxacin on a molar (mmoles/ml) basis: 25-200 times
[11]
  aggregation of E. coli: aggregated and debris could be observed
[12]
  growth of B. Subtilis: inhibits the growth
[13]; FIG. 14 Panel B, increasing concentrations, relative to controls (100%)
  growth of S. aureus: inhibits the growth
[13]; FIG. 16
  effect of co-administration of MDP, LPS, or PGN on inhibition of S. aureus growth: unaffected
  growth of S. aureus: inhibited the growth
[14]
  L. monocytogenes growth: inhibited
[15]
  minimal inhibitory concentration (MIC): >128 microgram/ml
[16]
  anti-bacterial activity by agar diffusion assay: Anti-bacterial activity
[17]
  antibacterial activity by bacterial ATP content (IC50), [LRR domain]: 13.7 +/− 13.0 microgram/ml
[18]
  antibacterial activity by bacterial ATP content (IC50), [LRR domain]: 6.8 +/− 1.6 microgram/ml
[19]; FIG. 13, ATP-coupled luminescent assay at 35° C., 37° C. and 39° C.
  antibacterial activity on S. aureus viability under bacterial stress: increased with bacterial stress
[19]; Staphylococcus aureus (29213), gram +, +/− SD, n = 3, >100 = activity detected but <50% inhibition
  antibacterial activity by bacterial ATP content (IC50), [LRR domain]: 6.0 +/− 4.0 microgram/ml
[20]
  antibacterial activity by bacterial ATP content (IC50), [LRR domain]: 3.0 +/− 1.6 microgram/ml
[21]
  antibacterial activity by bacterial ATP content (IC50), [LRR domain]: >100 microgram/ml
[22]
  antibacterial activity by bacterial ATP content (IC50), [LRR domain]: >100 microgram/ml
[23]
  antibacterial activity by bacterial ATP content (IC50), [LRR domain]: None detected
[24]
  antibacterial activity by bacterial ATP content (IC50), [LRR domain]: None detected
[25]
  antibacterial activity by bacterial ATP content (IC50), [LRR domain]: None detected
[26]
  membrane polarity of B. subtilis (depolarised bacteria taking up DiBAC4): influence
[27]
  number of gentamycin-protected intracellular bacteria: drastically reduced
[28]
  porins (OmpC and OmpF) identified in eluate of LRR affinity column: specifically identified in the eluate
